# Patent publication US10253078 (ZEALAND PHARMA A S, dated 2019)
# Where a chain is given by its changes, count along the chain named. Starred links: 1 amine or outer side, 2 acyl side, 3 side chain; linkers in the order of their positions; H or OH if unused. Non-standard residues stand in square brackets, D forms with d. Groups on a side chain read outwards from the residue. *: point of attachment. C20 diacid = O=C(O)CCCCCCCCCCCCCCCCCCC(=O)*; γGlu = O=C(O)[C@H](CCC(=O)[*:2])N[*:1]; Aib = CC(C)(N)C(=O)O
# T1: human GIP receptor (human, UniProt P48546 22-466)
# T1 sequence (looked up): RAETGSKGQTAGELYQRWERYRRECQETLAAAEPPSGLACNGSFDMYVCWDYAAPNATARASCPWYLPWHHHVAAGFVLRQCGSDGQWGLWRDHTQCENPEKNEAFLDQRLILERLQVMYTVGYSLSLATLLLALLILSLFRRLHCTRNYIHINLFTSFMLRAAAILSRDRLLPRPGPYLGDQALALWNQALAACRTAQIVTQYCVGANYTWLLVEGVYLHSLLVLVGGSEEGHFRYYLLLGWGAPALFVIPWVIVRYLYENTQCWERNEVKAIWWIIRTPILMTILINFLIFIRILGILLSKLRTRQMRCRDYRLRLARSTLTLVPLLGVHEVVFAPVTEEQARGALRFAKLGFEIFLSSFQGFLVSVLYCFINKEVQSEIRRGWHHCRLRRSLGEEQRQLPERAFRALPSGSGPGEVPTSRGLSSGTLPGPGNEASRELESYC
# B1: Compound 15 (peptide)
# peptide: H-Y[Aib]EGTFISDYSIELDKK([Peg3-Peg3-γGlu-C20 diacid])AAQDFVNWLLAGPSSGAPPPS-NH2
# B2: Compound 29 (peptide)
# peptide: H-Y[Aib]EGTFISDYSIELDKK([Peg3-Peg3-γGlu-C20 diacid])AAQAFVNWLLAGPSSGAPPPS-NH2
# B3: Compound 36 (peptide)
# peptide: H-Y[dA]EGTFISDYSIELDKK([Peg3-Peg3-γGlu-C20 diacid])AQRAFIEWLLAQGPSSGAPPPS-NH2
# B4: Compound 39 (peptide)
# peptide: H-Y[Aib]EGTFISDYSIELDKK([Peg3-Peg3-γGlu-C20 diacid])AAQDFINWLLAQGPSSGAPPPS-NH2
# B5: Compound 38 (peptide)
# peptide: H-Y[Aib]EGTFISDYSIELDKK([Peg3-Peg3-γGlu-C20 diacid])AAQDFIEWLLAQGPSSGAPPPS-NH2
# B6: Compound 33 (peptide)
# peptide: YAEGTFISDYSIELDKKAAQDFIEWLLAGPSSGAPPPS
# modifications: Aib at 2; Lys 17 side chain acylated: K((19-Carboxy-nonadecanoyl)-[(Piperazine-1-yl)-acetyl]-Peg3-Peg3); C-terminal amide (-NH2)
# B7: Compound 11 (peptide)
# peptide: H-Y[Aib]EGTFISDYSIELEKK([Peg3-Peg3-γGlu-C20 diacid])AAKEFVNWLLAQGPSSGAPPPS-NH2
# B8: Compound 31 (peptide)
# peptide: H-Y[Aib]EGTFISDYSIELDKK([Peg3-Peg3-γGlu-C20 diacid])AAQDFINWLLAGPSSGAPPPS-NH2
# B9: Compound 32 (peptide)
# peptide: H-Y[Aib]EGTFISDYSIELDKK([Peg3-Peg3-γGlu-C20 diacid])AAQDFIEWLLAGPSSGAPPPS-NH2
# B10: Compound 12 (peptide)
# peptide: H-Y[Aib]EGTFISDYSIELEKK([Peg3-Peg3-γGlu-C20 diacid])AQRAFVEWLLAQGPSSGAPPPS-NH2
# B11: Compound 35 (peptide)
# peptide: H-Y[Aib]EGTFISDYSK([Peg3-Peg3-γGlu-C20 diacid])ELDKIAQRAFIEWLLAQGPSSGAPPPS-NH2
# B12: Compound 26 (peptide)
# peptide: YAEGTFISDYSIELDKIAAQDFIEWLLAGPSSGAPPPSK
# modifications: Aib at 2; Lys 39 side chain acylated: K((19-Carboxy-nonadecanoyl)-[(Piperazine-1-yl)-acetyl]-Peg3-Peg3); C-terminal amide (-NH2)
# B13: Compound 37 (peptide)
# peptide: B12 peptide with A2X
# modifications: D-Ala at 2; Lys 39 side chain acylated: K((19-Carboxy-nonadecanoyl)-[(Piperazine-1-yl)-acetyl]-Peg3-Peg3); C-terminal amide (-NH2)
# B14: Compound 22 (peptide)
# peptide: H-Y[Aib]EGTFISDYSIELDKK([Peg3-Peg3-γGlu-C20 diacid])AQKEFVEWLLAAGPSSGAPPPS-NH2
# Molecular target: T1, human GIP receptor
# Experiment: cell-based or functional assay
row,Binder,"EC50, hGIP-R level of cAMP (HEK293 cells expressing human GIP R) [nM]"
1,B1,0.012
2,B2,0.014
3,B3,0.006
4,B4,0.007
5,B5,0.001
6,B6,0.014
7,B7,0.009
8,B8,0.012
9,B9,0.02
10,B10,0.009
11,B11,0.008
12,B12,0.017
13,B13,0.016
14,B14,0.005

# Molecular target: T1, human GIP receptor
# Experiment: cell-based or functional assay
# Remark: another data set of the same source
row,Binder,"EC50 hGIP R (cAMP, HEK293 cells expressing the GIP R) [nM]"
1,B1,0.024
2,B2,0.007
3,B3,0.006
4,B4,0.001
5,B5,0.017
6,B6,0.02
7,B7,0.008
8,B8,0.009
9,B9,0.012
10,B10,0.009
11,B11,0.011
12,B12,0.032
13,B13,0.006
14,B14,0.007

# Molecular target: human GLP-1 receptor (human, UniProt P43220 24-463)
# Experiment: cell-based or functional assay
row,Binder,"EC50 hGLP1 R (cAMP, HEK293 cells expressing the GLP-1R) [nM]"
1,B1,> 100
2,B2,> 100
3,B3,> 10
4,B4,> 100
5,B5,> 100
6,B6,> 10
7,B7,> 3
8,B8,> 100
9,B9,> 100
10,B10,> 3
11,B11,> 3
12,B12,> 10
13,B13,> 10
14,B14,> 10
